Measurements: paper doi:10.1101/695502 (bioRxiv, 2019)
Read-outs that look alike come from different tables or passages of the source.

Tests used:
[1] = biological target: mm PCDH15 EC1-MAD12 CD1-1 (Mus musculus); experiment: SEC-MALS
[2] = biological target: mm PCDH15 EC1-MAD12 CD1-1 (Mus musculus); experiment: SEC-MALS; remark: listed apart in the source
[3] = biological target: hs PCDH15 EC1-3 G16D/N369D/Q370N (Homo sapiens)
[4] = biological target: bacterially produced mm PCDH15 EC9-MAD12 (Mus musculus); experiment: SEC-SAXS
[5] = biological target: mm PCDH15 EC9-MAD12 (mammalian-expressed, glycosylated) (Mus musculus); experiment: SEC-MALS
AUC = biological target: the molecule itself; experiment: AUC

mm PCDH15 EC1-MAD12 CD1-1 (domain or fragment)
stoichiometry N [1]: 2
stoichiometry N [2]: 2

hs PCDH15 EC1-3 G16D/N369D/Q370N (domain or fragment)
stoichiometry N [3]: 2

bacterially produced mm PCDH15 EC9-MAD12 (domain or fragment)
stoichiometry N [4]: 2

mm PCDH15 EC9-MAD12 (mammalian-expressed, glycosylated) (domain or fragment)
stoichiometry N [5]: 2

B1: hs PCDH15 EC2-3 WT (domain or fragment, Homo sapiens)
chain: NSPTFKHESYYATVNELTPVGTTIFTGFSGDNGATDIDDGPNGQIEYVIQYNPDDPTSNDTFEIPLMLTGNIVLRKRLNYEDKTRYFVIIQANDRAQNLNERRTTTTTLTVDVLDGDDLGPMFLPCVLVPNTRDCRPLTYQAAIPELRTPEELNPIIVTPPIQAIDQDRNIQPPSDRPGILYSILVGTPEDYPRFFHMHPRTAELSLLEPVNRDFHQKFDLVIKAEQDNGHPLPAFAGLHIEILDENN
Kd (AUC): < 1000 nM
stoichiometry N (AUC): 2
